According to the supplement of paper PMC10065799, “High-throughput profiling of sequence recognition by tyrosine kinases and SH2 domains using bacterial peptide display” (eLife, 2023):

What was measured:
EPHB2 = EPHB2 (UniProt P29323); assay: phosphorylation enrichment, bacterial display (enrichment ratio); higher = better substrate or ligand; peptides without Tyr show the background
EPHB1 = EPHB1 (UniProt P54762); assay: as above
Fyn = Fyn (UniProt P06241); assay: as above
Fes = Fes (UniProt P07332); assay: as above
Fes, sequence (P07332 whole entry, looked up): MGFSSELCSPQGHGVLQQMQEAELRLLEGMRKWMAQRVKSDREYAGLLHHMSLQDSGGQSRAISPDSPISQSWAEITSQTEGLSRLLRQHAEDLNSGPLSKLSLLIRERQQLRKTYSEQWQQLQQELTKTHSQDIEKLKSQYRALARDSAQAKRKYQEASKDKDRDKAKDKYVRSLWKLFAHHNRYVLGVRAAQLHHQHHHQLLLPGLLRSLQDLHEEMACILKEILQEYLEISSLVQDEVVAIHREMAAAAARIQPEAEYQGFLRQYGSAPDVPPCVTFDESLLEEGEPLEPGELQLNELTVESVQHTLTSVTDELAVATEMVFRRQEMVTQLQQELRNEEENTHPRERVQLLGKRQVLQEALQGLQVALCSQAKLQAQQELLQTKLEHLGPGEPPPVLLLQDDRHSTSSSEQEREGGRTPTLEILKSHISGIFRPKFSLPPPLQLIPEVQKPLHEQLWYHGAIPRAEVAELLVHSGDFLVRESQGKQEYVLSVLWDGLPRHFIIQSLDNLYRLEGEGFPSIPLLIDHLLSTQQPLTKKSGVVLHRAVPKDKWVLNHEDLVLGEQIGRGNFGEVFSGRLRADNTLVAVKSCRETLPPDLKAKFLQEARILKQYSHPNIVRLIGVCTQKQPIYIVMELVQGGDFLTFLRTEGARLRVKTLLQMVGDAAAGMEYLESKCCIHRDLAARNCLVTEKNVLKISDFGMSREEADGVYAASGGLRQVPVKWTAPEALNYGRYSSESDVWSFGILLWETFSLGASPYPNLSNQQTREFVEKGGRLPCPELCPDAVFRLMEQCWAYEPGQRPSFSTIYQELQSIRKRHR

Jak2 = Jak2 (UniProt O60674); assay: as above
Jak2, sequence (O60674 whole entry, looked up): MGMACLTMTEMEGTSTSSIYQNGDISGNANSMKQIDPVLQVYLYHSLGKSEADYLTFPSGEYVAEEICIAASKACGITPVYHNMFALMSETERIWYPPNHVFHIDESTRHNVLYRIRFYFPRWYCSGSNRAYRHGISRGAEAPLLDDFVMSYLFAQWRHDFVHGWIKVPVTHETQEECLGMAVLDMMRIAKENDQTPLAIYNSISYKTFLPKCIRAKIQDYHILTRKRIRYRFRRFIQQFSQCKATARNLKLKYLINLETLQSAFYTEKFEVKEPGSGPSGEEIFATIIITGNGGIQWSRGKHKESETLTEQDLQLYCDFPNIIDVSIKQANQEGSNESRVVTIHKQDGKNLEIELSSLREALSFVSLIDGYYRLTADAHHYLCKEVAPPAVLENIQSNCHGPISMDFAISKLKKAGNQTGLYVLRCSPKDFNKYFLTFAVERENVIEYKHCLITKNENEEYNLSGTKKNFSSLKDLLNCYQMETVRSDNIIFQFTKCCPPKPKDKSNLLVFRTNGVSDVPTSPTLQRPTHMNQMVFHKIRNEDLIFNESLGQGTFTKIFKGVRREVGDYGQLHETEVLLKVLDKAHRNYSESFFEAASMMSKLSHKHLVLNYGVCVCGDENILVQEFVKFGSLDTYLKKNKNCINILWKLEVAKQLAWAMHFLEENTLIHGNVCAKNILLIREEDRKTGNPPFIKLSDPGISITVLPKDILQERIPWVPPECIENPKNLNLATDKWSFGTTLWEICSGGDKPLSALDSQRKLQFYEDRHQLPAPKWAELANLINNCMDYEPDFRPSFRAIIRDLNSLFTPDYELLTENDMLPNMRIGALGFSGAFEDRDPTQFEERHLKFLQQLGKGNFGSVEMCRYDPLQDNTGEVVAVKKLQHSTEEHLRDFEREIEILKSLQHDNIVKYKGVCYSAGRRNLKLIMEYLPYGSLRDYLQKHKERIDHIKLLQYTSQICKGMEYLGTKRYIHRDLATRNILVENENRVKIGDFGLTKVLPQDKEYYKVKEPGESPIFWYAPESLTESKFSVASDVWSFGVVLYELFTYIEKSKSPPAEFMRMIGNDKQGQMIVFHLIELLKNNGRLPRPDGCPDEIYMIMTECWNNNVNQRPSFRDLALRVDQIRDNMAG

Fer (mouse) = assay: as above
c-Abl (mouse) = assay: as above
c-Src = assay: as above
Hck = Hck (UniProt P08631); assay: as above
Hck, sequence (P08631 whole entry, looked up): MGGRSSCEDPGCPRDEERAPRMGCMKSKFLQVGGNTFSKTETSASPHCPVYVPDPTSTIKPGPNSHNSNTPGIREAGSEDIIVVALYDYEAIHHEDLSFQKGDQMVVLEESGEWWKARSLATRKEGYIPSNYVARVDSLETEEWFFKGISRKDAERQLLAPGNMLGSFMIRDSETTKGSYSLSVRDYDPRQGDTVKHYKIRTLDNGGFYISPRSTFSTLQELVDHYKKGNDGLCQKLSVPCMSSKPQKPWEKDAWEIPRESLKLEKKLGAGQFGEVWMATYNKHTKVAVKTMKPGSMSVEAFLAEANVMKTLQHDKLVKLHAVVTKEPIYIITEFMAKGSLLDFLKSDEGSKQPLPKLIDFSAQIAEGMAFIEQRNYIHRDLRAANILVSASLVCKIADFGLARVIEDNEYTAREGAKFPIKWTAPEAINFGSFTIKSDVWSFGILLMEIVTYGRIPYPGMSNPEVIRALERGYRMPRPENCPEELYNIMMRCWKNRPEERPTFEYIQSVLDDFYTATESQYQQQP

AncSZ = assay: as above
MERTK = MERTK (UniProt Q12866); assay: as above
MERTK, sequence (Q12866 whole entry, looked up): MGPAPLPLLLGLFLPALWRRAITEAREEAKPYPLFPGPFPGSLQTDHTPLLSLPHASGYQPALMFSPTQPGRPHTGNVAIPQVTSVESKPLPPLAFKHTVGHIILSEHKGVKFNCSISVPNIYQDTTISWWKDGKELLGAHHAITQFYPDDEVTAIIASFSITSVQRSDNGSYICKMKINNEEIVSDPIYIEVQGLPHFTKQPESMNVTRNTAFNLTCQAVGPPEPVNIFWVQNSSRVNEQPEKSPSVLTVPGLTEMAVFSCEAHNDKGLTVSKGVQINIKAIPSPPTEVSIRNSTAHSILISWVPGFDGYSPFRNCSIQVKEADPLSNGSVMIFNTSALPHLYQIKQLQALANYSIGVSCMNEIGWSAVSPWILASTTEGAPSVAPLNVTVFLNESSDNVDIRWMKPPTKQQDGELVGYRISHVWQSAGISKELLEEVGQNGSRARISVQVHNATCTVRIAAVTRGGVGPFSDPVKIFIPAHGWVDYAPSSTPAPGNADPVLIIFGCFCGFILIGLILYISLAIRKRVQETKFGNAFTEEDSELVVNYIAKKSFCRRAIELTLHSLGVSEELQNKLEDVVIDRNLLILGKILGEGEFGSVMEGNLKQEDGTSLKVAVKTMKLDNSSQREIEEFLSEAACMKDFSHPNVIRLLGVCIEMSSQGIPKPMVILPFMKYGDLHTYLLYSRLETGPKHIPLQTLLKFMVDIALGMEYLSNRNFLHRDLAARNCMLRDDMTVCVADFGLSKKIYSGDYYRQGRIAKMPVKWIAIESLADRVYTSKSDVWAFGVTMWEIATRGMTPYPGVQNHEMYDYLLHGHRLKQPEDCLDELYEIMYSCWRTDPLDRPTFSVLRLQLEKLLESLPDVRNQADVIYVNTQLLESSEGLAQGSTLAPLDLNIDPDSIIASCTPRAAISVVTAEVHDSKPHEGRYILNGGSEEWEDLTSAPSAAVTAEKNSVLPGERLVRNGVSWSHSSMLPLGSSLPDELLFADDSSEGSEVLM

FGFR3 = FGFR3 (UniProt P22607); assay: as above
FGFR3, sequence (P22607 whole entry, looked up): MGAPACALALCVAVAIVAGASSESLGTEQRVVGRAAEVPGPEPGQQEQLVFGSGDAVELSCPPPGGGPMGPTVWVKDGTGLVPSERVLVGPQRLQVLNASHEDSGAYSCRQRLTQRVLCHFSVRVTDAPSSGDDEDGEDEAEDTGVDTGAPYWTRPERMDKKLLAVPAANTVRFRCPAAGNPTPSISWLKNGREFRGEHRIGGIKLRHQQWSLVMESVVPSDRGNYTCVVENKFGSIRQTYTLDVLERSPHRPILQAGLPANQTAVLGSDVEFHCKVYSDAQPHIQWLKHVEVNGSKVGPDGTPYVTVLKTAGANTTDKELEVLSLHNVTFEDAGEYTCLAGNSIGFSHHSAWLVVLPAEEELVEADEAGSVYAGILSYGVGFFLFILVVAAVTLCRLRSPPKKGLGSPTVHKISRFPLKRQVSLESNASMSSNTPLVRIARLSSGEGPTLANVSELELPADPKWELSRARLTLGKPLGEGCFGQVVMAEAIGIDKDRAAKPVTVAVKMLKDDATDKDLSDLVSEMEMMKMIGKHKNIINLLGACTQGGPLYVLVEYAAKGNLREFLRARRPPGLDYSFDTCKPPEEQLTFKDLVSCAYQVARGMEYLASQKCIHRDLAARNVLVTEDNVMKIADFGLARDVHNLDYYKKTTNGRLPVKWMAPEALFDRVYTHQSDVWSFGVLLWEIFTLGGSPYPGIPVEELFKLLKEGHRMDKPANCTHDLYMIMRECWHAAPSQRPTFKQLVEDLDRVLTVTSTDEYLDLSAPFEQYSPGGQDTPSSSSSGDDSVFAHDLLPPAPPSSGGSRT

FGFR1 = FGFR1 (UniProt P11362); assay: as above
Grb2 SH2 = Grb2 SH2 (UniProt P62993); assay: SH2 binding enrichment of the phosphorylated peptide, bacterial display (enrichment ratio); higher = better substrate or ligand; peptides without Tyr show the background
SHP2-C SH2 = assay: as above
c-Src SH2 = assay: as above
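Wherever SH2 binding enrichment of the phosphorylated peptide, bacterial display is given: peptide library displayed on the E. coli surface as eCPX fusions, selected cells deep-sequenced, score is each peptide's frequency after selection divided by its frequency in the input.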
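Wherever phosphorylation enrichment, bacterial display is given: 11-residue human phosphosite peptides and single-mutation variants displayed on the E. coli surface, counted by deep sequencing, each peptide's frequency after selection divided by its frequency in the unselected input library; frequency after pTyr selection over input frequency; kinase dosed for 20-30% of maximal phosphorylation in three min.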

Fyn, sequence (P06241 whole entry, looked up): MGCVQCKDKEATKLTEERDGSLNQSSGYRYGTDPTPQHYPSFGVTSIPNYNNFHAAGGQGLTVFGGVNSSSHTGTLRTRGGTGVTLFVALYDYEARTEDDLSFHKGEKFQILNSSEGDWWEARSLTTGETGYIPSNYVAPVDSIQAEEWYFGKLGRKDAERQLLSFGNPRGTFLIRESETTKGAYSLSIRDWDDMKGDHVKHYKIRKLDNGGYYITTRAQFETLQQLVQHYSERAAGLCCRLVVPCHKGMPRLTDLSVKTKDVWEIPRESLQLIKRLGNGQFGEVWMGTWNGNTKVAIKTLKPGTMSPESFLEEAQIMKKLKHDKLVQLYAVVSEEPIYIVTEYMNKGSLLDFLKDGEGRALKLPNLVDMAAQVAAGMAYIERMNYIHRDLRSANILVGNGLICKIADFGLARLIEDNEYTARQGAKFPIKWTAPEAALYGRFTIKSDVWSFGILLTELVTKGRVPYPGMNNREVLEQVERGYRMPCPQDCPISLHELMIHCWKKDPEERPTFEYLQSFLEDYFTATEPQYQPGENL

Sequence | SH2 binding enrichment (Grb2 SH2) | SH2 binding enrichment (SHP2-C SH2) | SH2 binding enrichment (c-Src SH2) | phosphorylation enrichment (EPHB2) | phosphorylation enrichment (EPHB1) | phosphorylation enrichment (Fyn) | phosphorylation enrichment (Fes) | phosphorylation enrichment (Jak2) | phosphorylation enrichment (Fer (mouse)) | phosphorylation enrichment (c-Abl (mouse)) | phosphorylation enrichment (c-Src) | phosphorylation enrichment (Hck) | phosphorylation enrichment (AncSZ) | phosphorylation enrichment (MERTK) | phosphorylation enrichment (FGFR3) | phosphorylation enrichment (FGFR1)
SEELHYFVQNH [UQCRC2_Y207] | 0.806 | 0.819 | 0.587 | 0.661 | 0.647 | 0.523 | 1.16 | 1.08 | 0.562 | 1.07 | 0.685 | 0.524 | 1.45 | 0.841 | 1.39 | 1.12
LAIELYVVVCK [RHO_Y136_R135L] | 0.976 | 0.67 | 0.458 | 2.06 | 2.12 | 1.14 | 3.23 | 2.07 | 1.17 | 2.59 | 1.11 | 0.861 | 2.14 | 0.597 | 1.64 | 1.4
KDPPDYKFQPR [SOX9_Y172_H169P_YF] | 0.928 | 0.791 | 0.609 | 0.44 | 0.343 | 0.439 | 0.789 | 0.719 | 0.449 | 0.626 | 0.43 | 0.414 | 0.811 | 0.461 | 0.527 | 0.427
ISSLPYMKMIF [SLC4A11_Y853_M848I] | 1.19 | 1.52 | 1.61 | 0.547 | 0.536 | 0.457 | 1.07 | 1.35 | 1.11 | 0.872 | 0.79 | 0.677 | 1.05 | 0.668 | 0.665 | 0.696
QLCVNYPGGYT [PROS1_Y259] | 0.796 | 0.571 | 0.528 | 0.772 | 1.32 | 1 | 1.66 | 0.999 | 0.811 | 0.845 | 0.537 | 0.965 | 1.24 | 0.513 | 1.42 | 0.767
RQQQDYWLIDV [ANPEP_Y600] | 1.07 | 0.913 | 0.586 | 4.64 | 8.95 | 0.847 | 1.6 | 2.43 | 3.21 | 1.32 | 1.47 | 0.625 | 3.3 | 4.02 | 17.4 | 20.6
ASNFNYFFHRE [KCNA1_Y413_V408A_YF] | 1.31 | 1.03 | 0.6 | 0.556 | 0.511 | 0.372 | 1.01 | 0.805 | 0.415 | 0.571 | 0.43 | 0.654 | 1.03 | 0.453 | 0.748 | 0.506
SVTCTYFPALN [TP53_Y126_S127F] | 0.721 | 0.747 | 0.388 | 0.669 | 0.83 | 0.487 | 1.82 | 1.64 | 0.637 | 1.13 | 0.452 | 0.554 | 1.68 | 0.608 | 1.01 | 0.632
PTDCVYVMPTV [MYO7A_Y1668_S1666C] | 1.01 | 0.716 | 0.642 | 2.4 | 3.34 | 8.41 | 1.06 | 1.1 | 1.08 | 7.37 | 4.95 | 4.49 | 5.31 | 6.63 | 3.92 | 5
RFLRGYHQDAY [HLA-A_Y137_R138H] | 0.857 | 0.497 | 0.632 | 1.03 | 0.84 | 0.762 | 0.772 | 1.28 | 0.923 | 0.984 | 0.935 | 0.538 | 0.963 | 0.795 | 0.895 | 0.572
EFKDAYTFAAD [BRDT_Y335_K336T_YF] | 0.813 | 0.713 | 0.703 | 0.519 | 0.452 | 0.63 | 0.959 | 0.835 | 0.477 | 0.647 | 1.36 | 0.57 | 1.09 | 0.456 | 0.606 | 0.508
LARDMHDKEFF [MET_Y1230_Y1230H_YF] | 0.884 | 0.668 | 0.423 | 0.757 | 0.723 | 0.821 | 0.864 | 1.15 | 0.362 | 0.91 | 0.671 | 0.812 | 1.08 | 0.907 | 0.661 | 0.625
DTLLEYLENPK [CYCS_Y68_M66L] | 0.763 | 0.735 | 0.501 | 0.535 | 0.7 | 0.493 | 1.25 | 1.04 | 0.576 | 0.668 | 0.463 | 0.511 | 1.45 | 0.448 | 0.828 | 0.503
HSVLNYGVCVC [JAK2_Y613_L609S] | 0.853 | 0.929 | 0.584 | 0.905 | 0.87 | 0.564 | 1.57 | 1.17 | 0.692 | 0.925 | 0.595 | 0.62 | 0.91 | 0.482 | 0.84 | 0.674
FSEVRYMKEPY [HIPK4_Y170_V171M] | 1.06 | 0.757 | 0.484 | 0.496 | 0.425 | 0.36 | 0.988 | 0.781 | 0.437 | 0.695 | 0.432 | 0.536 | 0.852 | 0.463 | 0.72 | 0.485

Further lines, with some results ahead:

SH2 binding enrichment (Grb2 SH2) | SH2 binding enrichment (SHP2-C SH2) | SH2 binding enrichment (c-Src SH2) | Sequence | phosphorylation enrichment (EPHB2) | phosphorylation enrichment (EPHB1) | phosphorylation enrichment (Fyn) | phosphorylation enrichment (Fes) | phosphorylation enrichment (Jak2) | phosphorylation enrichment (Fer (mouse)) | phosphorylation enrichment (c-Abl (mouse)) | phosphorylation enrichment (c-Src) | phosphorylation enrichment (Hck) | phosphorylation enrichment (AncSZ) | phosphorylation enrichment (MERTK) | phosphorylation enrichment (FGFR3) | phosphorylation enrichment (FGFR1)
1.15 | 0.923 | 0.746 | KLRMESLSLMH [NCKIPSD_Y660_Y660S] | 0.483 | 0.423 | 0.45 | 0.782 | 0.644 | 0.388 | 0.508 | 0.457 | 0.415 | 0.658 | 0.436 | 0.476 | 0.453
0.722 | 0.746 | 0.496 | FQHLRYIKQLG [SAMHD1_Y146_R143H] | 0.371 | 0.374 | 0.393 | 0.775 | 0.706 | 0.436 | 0.502 | 0.331 | 0.395 | 0.685 | 0.363 | 0.611 | 0.393
0.838 | 0.529 | 0.442 | RRVLVYGDRGA [QDPR_Y16_G18D] | 0.322 | 0.34 | 0.542 | 0.539 | 0.485 | 0.424 | 0.445 | 0.573 | 0.525 | 0.585 | 0.48 | 0.549 | 0.413
1.48 | 0.842 | 0.911 | QRHFVYFFSFL [PTEN_Y176_R173H_YF] | 0.761 | 0.983 | 1.07 | 1.88 | 1.46 | 1.11 | 1.31 | 0.664 | 1.09 | 1.91 | 0.717 | 1.46 | 1.69
0.632 | 0.638 | 0.41 | EMTAEYTCTRK [ACAD9_Y325_A326T] | 0.607 | 0.674 | 0.624 | 0.974 | 0.757 | 0.513 | 0.636 | 0.477 | 0.699 | 1.14 | 0.465 | 0.636 | 0.654
0.791 | 0.861 | 0.963 | SVVLPYEPPEV [TP53_Y220_V218L] | 0.797 | 0.686 | 0.456 | 1.12 | 0.98 | 0.746 | 0.945 | 0.592 | 0.518 | 1.47 | 0.47 | 0.704 | 0.538
0.984 | 0.856 | 1.08 | VVEDGYEFFAK [PPP1CB_Y254] | 0.792 | 0.473 | 0.571 | 0.988 | 1.01 | 0.42 | 0.574 | 0.504 | 0.491 | 1.41 | 0.392 | 0.615 | 0.518
0.931 | 0.58 | 0.533 | KGELRYMHSPV [ABCD1_Y281_R285P] | 0.367 | 0.393 | 0.328 | 0.674 | 0.619 | 0.315 | 0.527 | 0.365 | 0.345 | 0.481 | 0.406 | 0.458 | 0.364
0.473 | 0.565 | 0.565 | RSRRSYSCQVM [IGLL1_Y192] | 0.802 | 0.616 | 0.808 | 0.862 | 0.774 | 0.639 | 0.797 | 0.924 | 0.64 | 0.754 | 0.9 | 0.832 | 0.586
0.866 | 0.899 | 3.31 | AVVEPYNSILT [TUBA1A_Y185] | 0.365 | 0.489 | 0.434 | 0.83 | 0.802 | 0.377 | 0.534 | 0.453 | 0.43 | 0.686 | 0.415 | 0.496 | 0.438
0.76 | 0.727 | 0.435 | LRRREYQRQDY [PRKRIP1_Y90] | 0.786 | 0.706 | 0.706 | 0.64 | 0.289 | 0.504 | 0.554 | 0.565 | 0.621 | 0.841 | 0.541 | 0.683 | 0.532
0.991 | 0.693 | 5.24 | DPAFGYEDFTR [SESN2_Y323_T320A] | 0.577 | 0.455 | 0.533 | 1.21 | 0.987 | 0.457 | 0.764 | 0.59 | 0.594 | 1.08 | 0.445 | 0.775 | 0.569
0.758 | 0.606 | 0.373 | ADGLEYSRTGL [MMUT_Y287] | 1.6 | 0.555 | 0.544 | 0.978 | 0.855 | 0.514 | 0.878 | 0.641 | 0.776 | 0.99 | 0.592 | 0.559 | 0.602
0.883 | 0.661 | 5.67 | AGADGYDFLAP [FOXL2_Y186_G187D_YF] | 0.645 | 0.554 | 0.452 | 1.17 | 1.03 | 0.598 | 0.785 | 0.555 | 0.79 | 0.984 | 0.708 | 0.744 | 0.543
0.735 | 0.607 | 0.874 | ARIVDYNIIGW [MYH7_Y588_G584R] | 0.662 | 0.542 | 0.545 | 0.846 | 0.671 | 0.406 | 0.561 | 0.445 | 0.56 | 0.808 | 0.454 | 0.839 | 0.81
0.707 | 0.69 | 0.442 | INNKMYDPKMN [ENPP1_Y280_D276N] | 0.432 | 0.44 | 0.397 | 0.609 | 0.556 | 0.482 | 0.473 | 0.449 | 0.436 | 0.535 | 0.354 | 0.491 | 0.389
0.588 | 0.661 | 0.369 | SVTCTYSPAVN [TP53_Y126_L130V] | 0.746 | 0.77 | 0.58 | 1.71 | 1.49 | 0.646 | 1.18 | 0.662 | 0.654 | 1.58 | 0.508 | 0.945 | 0.697
0.673 | 0.585 | 0.607 | DQIDTYELSGG [DNM1_Y354] | 0.735 | 0.423 | 1.29 | 1.12 | 0.866 | 0.479 | 0.616 | 1.28 | 0.752 | 1.38 | 0.481 | 0.695 | 0.54
